US20240285759A1 (published 2024)

T1: NRAS Q61R (RAS Q61R; the filing also names KRAS and HRAS comprising this peptide) peptide on HLA-A*01:01 (human)
T1 peptide: ILDTAGREEY

T2: NRAS wild type (RAS wild type) peptide on HLA-A*01:01 (human)
T2 peptide: ILDTAGQEEY

T3: NRAS Q61K (RAS Q61K; the filing also names KRAS and HRAS comprising this peptide) peptide on HLA-A*01:01 (human)
T3 peptide: ILDTAGKEEY


How the values were obtained:
Experiment in all cases: cytokine release
[1] = biological target: T1, NRAS Q61R (RAS Q61R; the filing also …)
[2] = biological target: T2, NRAS wild type (RAS wild type) peptide …
[3] = biological target: T3, NRAS Q61K (RAS Q61K; the filing also …)

| binding result [1] | binding result [2] | binding result [3] | Binder |
| --- | --- | --- | --- |
| recognises | no recognition | – | TCR2 (TCR, V domains shown) Valpha: GESVGLHLPTLSVQEGDNSIINCAYSNSASDYFIWYKQESGKGPQFIIDIRSNMDKRQGQRVTVLLNKTVKHLSLQIAATQPGDSAVYFCAENIRLTGANNLFFGTGTRLTVIP Vbeta: GAVVSQHPSWVICKSGTSVKIECRSLDFQATTMFWYRQFPKQSLMLMATSNEGSKATYEQGVEKDKFLINHASLTLSTLTVTSAHPEDSSFYICSARLLSYEQYFGPGTRLTVT |
| recognises | no recognition | recognises | TCR1 (TCR, V domains shown) Valpha: GQQLNQSPQSMFIQEGEDVSMNCTSSSIFNTWLWYKQEPGEGPVLLIALYKAGELTSNGRLTAQFGITRKDSFLNISASIPSDVGIYFCAGRDDAGNMLTFGGGTRLMVKP Vbeta: GAVVSQHPSRVICKSGTSVKIECRSLDFQATTMFWYRQFPKKSLMLMATSNEGSKATYEQGVEKDKFLINHASLTLSTLTVTSAHPEDSSFYICSASVRMNTEAFFGQGTRLTVV |
